According to patent US20260241035A1, “FUNCTIONAL NUCLEIC ACID MOLECULE AND METHOD” (THE UNIVERSITY COURT OF THE UNIVERSITY OF EDINBURGH, priority 2022, published 2026):

B1: CSE088: clustered SOX dimer motif enhancer, SEQ ID NO: 44 (nucleic acid)
DNA: CTCGATACCCACATTCCTAACCTTTTAATGCCAAGCAGCCTATAAGCATGTCAAATTTTACTCATGTTCCTGCTCTTTCCACTCAAGTTGGCTTTGTGGGTTGCTGGTTTTATCAAAATTGAGTGAGAGTGTGTTCAATACAATGTTGGATTCATTAGGGAGAAAAAAGCCAAATAAAAACCTTGCTTCTTCAATGCCAGGAGCTTACAAAGACATATAAACCATGAGGAATTCCAAGGACTTGCTCAGAAGCCGTTCTGCAAATGCATTTCTTGAACAAAGGGCCAATGTTCCTTTCAGGGAAGAGCGCGGGACTGGTTTCCGGCATTTTTCTTTAAATCATTAGGACCATGCCAGCAAACAAACATATACAGCCCCTGGGAGAAAGAATCTCATTCAACACAGCTTACAAGAGTTTGATTATTAGGGAGGGGTGCTTCATGGCACGTGCCTCACCAGCCGGCCCCCAAATGTACAGATCTGTTTAAAGGGCTTTATTGATGGTGGCCGCAGACAGATAGAGCTTGTGAGGAGAACTGACATCCCATGGATACTAACATATCAGCATCATCCTGACCAGCACACAATCCAGTCAGAGAGAGCTGAAAAGTCTGCCTCATTCCCTTGAAAATGTGCTTCTTAAGACAAATAAAATATAGAAATAAGAAATTCACCTC
B2: CSE054: clustered SOX dimer motif enhancer, SEQ ID NO: 50 (nucleic acid)
DNA: GCCAACAACTCATATAGTGGAGGCTTGAGCACACCATGCTTATTCCCAGAGTTCCAATGCTCTGCTTTTGAACCATTACCATGCCTTTCAGCAGCACTGTCAACAGAGCTCAGAGAAGGTCTTGAACTCCAGAGAATGAATGAGATATGCCAAATGAAGCATAATTACTTTATTGACGTCATTCAGCTTTCAACTCACATTTAATGAGAAAGCTTCTACTGCTTGAAACAGTGGGCCATTTGTAGCACATTATGCAAATGATAAGACTAATCTTTTGCATTATACATAAGAGCTGCTTATTGTGCATTAACTAATTTATCTGACTAGGAAGGGGCTATGAATGCTGATTTTTATTAAGCTCTTCATTAAGTGAAAATGTAGGCATGGCAAGTGCATAT
B3: CSE025: clustered SOX dimer motif enhancer, SEQ ID NO: 45 (nucleic acid)
DNA: ATGGACAATGGCAGCCTGAAAGAATATGAGGGAGGGTCACCAGTGATGGACATGGTTTGGGGAGAGCCCAAGAATTGAAGGGGACTTGGGATTGTTGACAGACCTTCCACATCTCAGAATGGGGGAAGTGGTTTCTTTTTTCCTCATTCTCCAAGGCTTCTCAGTCTCAGAGACCCCAAGAGATGCCATTAATACAGATTCCTCCTCTGGCTCCTTTGAGACATTTGCTTTTGAAGGACCTGGAAGAGAAAGCTCTTTGTATGTGGCCAGAATAAACTCATTGTACACCCAAACAATTAACTCCTCAATGGACTTGCCAGCCCCTTGAAAGGCCTGGCCCTGCGTCCCTGGACCTCTTGGGCTCTATTCAGTCCCTTAAGCACACCAATGTTTTTGGGTTTTTGTTTTGTTTTGTTTGTTATTCTGAAAAGTCTTTCCCTGAGAATAGTCTGAGCGGATCAACATTGTCCTCAGCCTGGCATTTATCTCTCCTCGCCAGCGAATGTCAATCAGGAATCAAAAAGCCAAACAGAGGAGGCTTTGAACGGTGTCATCGGGGGTCGAAGTGACTTCCAGCTGTCTGTGCGTGGGCCAGGCCTTCTCGCAGGGCAAGGAATTGTGCTGTCACACAAACCCACTGTCTGTATAGGCTCACAGAGCCCA
B4: CSE014: clustered SOX dimer motif enhancer, SEQ ID NO: 47 (nucleic acid)
DNA: GCCTTTTAGCTGATTAACAAATACAGTGAATTTAACTTTGTAGATTCTTAACATTTAAAGACAACAGTCTAAGGCAATTTAAAGTATATTCTGCCAATCAGTTGTTGAGTTAGACCACCCATAGCCTTTTTTTATTCTTCATTGTTTGAATAATATGGGAGGAAATTTAGTGTATACTCTCTTCTTCCTGTATTTTCCAGTTAGATTAAGCTGTTGTCTTCACAATTGCCTCCCAGCTGCTGTGACTTGTGAAAACAACAGACCCTGCTCTGTTGTCTGGAGAAAGCCGGGATTGTTATGAGTAACTTTATTGCAGGCACATGAGTGTGTTAAGACTTTAAAACACGCTCAAATGTCATGTGCACACCCAATGACGGGCAAGAATAATTATGAAAAAACAAGAAATCTATGTCTATGAAACCGTGTTGGACAAAATGGGCCATTCATTGTGTTCCCCTGGGAATGCCTGGACTCTGCAGTCAGAAAACAAAAAAGGCACTTTTTTCCTGCCGTAGGCTGAATGCTTAGCTTTGCCATCTGAGCCCTAAGAAAACATGGGCCCCTCTACTGCTGGCGCACCCACGCACACTAAAAAATATTAATGCCTCTCTCTCCTTACTTTTTTCCAGGCATTCCCTCGTGTAGGCTGTAGCCAATATAATGTCAACACAAA
B5: CSE061: clustered SOX dimer motif enhancer, SEQ ID NO: 48 (nucleic acid)
DNA: GAACAGCACTTAAATATTAATAGCATCACTGGGAAAACACGACAGCTATTTCCCTGTTTTCTGCAGCTCAATGAAGAGTTGTTCAGTGCAGACCCCAGTGCTCTTGCCTCATGAATGGACGTGATTGTGGGGACATCATCTCCTACTAAGGCAAAACGTGACACTGAGAACAAAGGCTGGTTTTTAGCCTGATGTGATGAGCTCACCCCAGTGCCCATGTGGGGACTTTGAAGCTCGTCCAGGTGCCAGTTTTCTGTGTATATGACATTCTTGGTTGGGGAGGGTGTGGACTGGGCAGCAGGCTTT
B6: ID0876: enhancer fragment, SEQ ID NO: 8 (nucleic acid)
DNA: GAGCAGGCAGTCATTTGGTTCCCTTCTCTGAATGCATTGGCTCTGATCCACGGCGCCTCAGGAAGTGAAAGGGAGCAGGCAGTGAGGCCAAGCCATGAATGTTGGGCCCTTTTCTTAGAAAACAAAGGGTTCACTTTAGGCTAGGAGGAAACATCCGGGG
B7: CSE075: clustered SOX dimer motif enhancer, SEQ ID NO: 49 (nucleic acid)
DNA: ATAAGCCCTTTAAATTAAATCTTTATGCAGATTCTATTTTATACTCCAAACTTTTCATGGAGCCTTGTGTAATTCTGATGTGTAAACCAACAAACAGAGAGGCTCTGTGTATGGAGTAGCTGGTTTGGATACCAGCTGGCTTGGCTGTGCGCCTTTCTAATGGTAATGAAGTCACACAGCTGCTAGGACAATCAGCTGGAGTTCAGATTGTCACTAGCTAAATGGATATCCATTGACTAGCTTCTTATCCGGACTCATTAAAGTTTAGTATTGACAAATAGTGGCTGGAGGTTTACAACTAAGAGGCATGTAGAAATGAACTTGTTGACTATTTTTTCCCTATAGCTTTTGCTTTGTGATTCACAGAATGTCATTCATC
B8: CSE033: clustered SOX dimer motif enhancer, SEQ ID NO: 46 (nucleic acid)
DNA: CTGGGGAACAAAACTTAGATCTTGATCATCCAGCATAGCTCTGGCATGCTGAGCGTGTGATACACCTGTCTCTACCGTCAGGCAAACGAGTGGGTTCACAGGCAGAGGCCTGCCCTGCCAAACAATGCTCCCCTTTGTCCCCGCCCAGGGCTCAGGAGCCGCAAGGAAGCCAAATCCATCAGCACTTGTCAGGGCCCTTGATGCACACAATGCAAGTTATGATCCACAGTCCCCGGCAAAGCCCCAGGCTTCCAGCAGGCAGCATTAACTGACACGCAATGTGTCAGTCAGCCTTCTAAAAGCCAGGGGTGGGGATCCGTGCCAGGGGGCCACTGAGCTCTCATTCCCAGAAGCCAACCAGAGCC

The molecules below were run on GSC7 cells (assay: Nano-Glo Dual-Luciferase Reporter (Nanoglo DLR) assay of enhancer activity, fold change to mCMV). Settings: expression fold change of the individual enhancer compared to mCMV.
Type: cell-based, human
Description: We chose an arrayed library format, with 160 bp enhancer fragments individually cloned into separate plasmids and arrayed in 96 well plates. These 160 bp were synthesized as a single pool of oligos, then randomly cloned into the plasmid and isolated. 20 bp×2 were needed for PCR amplification of the pool and so a library of 200 bp fragments was synthesized (Twist Biosciences). To meet our oligo synthesis strategy, ChIP-seq peaks expressed by GSCs were merged into a single oligo. This oligonucleotide pool was PCR-amplified (using limited cycles to reduce bias and ‘jackpot’ products meaning products which are easier to amplify will overtake the oligonucleotide pool) and cloned into the expression vector by an efficient Golden Gate reaction. 4579 individual plasmids were then randomly picked, isolated and plated as an arrayed plasmid DNA library on 96 well plates (×48). The bacterial colony picking and production of plasmid minipreps were supported by the Edinburgh Genome Foundry (S. Rosser). This library was then screened using the optimised Nanoglo DLR assay (Nano-Glo Dual-Luciferase Reporter Assay, Promega) in 384 well format. Each plate was transiently transfected together with PGK-FFLuc in a 1:10 ratio into GSC7 cells. 2 days later a Nanoglo DLR assay was performed and assayed on a plate reader.
Cells were seeded in 384 well plates using a multidrop and transfected the following day using the CyBio Felix. Two days later the experiment was terminated with a Nanoglo DLR assay and all hits with a fold change to mCMV greater than 10 were Sanger sequenced and mapped back to the genome.
Cells were seeded at the required density. The following day the transfection was carried out. For this the Plus reagent and Lipofectamine LTX (Life Technologies, 15338030) were each diluted in half the volume of Opti-MEM I Reduced-Serum Medium (further referred to as Optimem) (Life Technologies, 31985062). Following this step, the Plus reagent/Optimem premix was added to all DNA samples followed by the Lipofectamine LTX/Optimem premix. The transfection mix was incubated for 5 min at room temperature and then carefully dropped on the cells. Generally, no media change was carried out. Cells were analysed two days following transfection.
This assay consists of two steps. The transfection was carried out using a normalisation plasmid PGK-Firefly-Luciferase (Promega, E5011) that was transfected in a 1/10 ratio with the plasmid of interest. First, the Firefly Luciferase activity is measured which allows to normalise to transfection efficiency. In a second step, the activity of Nanoluc is determined which is the readout of the plasmid of interest. Cells were washed 3× with PBS and 20 μl was left in the 96 well plate after the final wash (25 μl in 384 well). Oneglo buffer was added and the plate was shaken for 5 min at 480 rpm to allow cell lysis. 20 μl cell lysate in 96 well format or 25 μl cell lysate in 384 well format was then transferred into the corresponding opaque white plate and luminescence was measured at for 0.1 s per well using the Ensight Multimode Plate Reader. For the following Nanoluc reaction in a 96 well format 2 μl cell lysate was transferred into an opaque white plate containing 40 μl PBS, and 20 μl Stopglo buffer, supplemented with substrate, was added to each well. In a 384 well format 20 μl Stopglo buffer containing substrate were added on top of the undiluted cell lysate. The plate was shaken again for 5 min at 480 rpm to quench the firefly luciferase reaction and ensure good mixing. Nanoluc activity was measured for 0.1 s per well, again using Ensight Multimode Plate Reader.
Data obtained by the Nanoluc reaction was normalised to Firefly reaction to account for well-to-well variability of transfection efficiency. Normalised data were used to calculate the fold change to the empty vector control mCMV.
B1 was tested, and the “Fold change (Median)” value was 16.5 fold.
For B2, the “Fold change (Median)” value was 65.7 fold.
In the case of B3, the “Fold change (Median)” value is reported as 21.3 fold.
With B4 the “Fold change (Median)” value was 27.7 fold.
B5 was tested, and the “Fold change (Median)” value was 58.3 fold.
With B6 the “Fold change (Median)” value was 91.1 fold.
For B7, the “Fold change (Median)” value was 58.1 fold.
With B8 the “Fold change (Median)” value was 20.9 fold.
